Experiment: soluble on expression in E. coli; label from the status in PepcDB or PDB records
With “GHHHHHHAIAENLYFQSMEYGHHARPDSKRPLDEGSPAAAGLTSKKANEALTRNRELTTVLVKNLPKSYNQNKVYKYFKHCGPIIHVDVADSLKKNFRFARIEFARYDGALAAITKTHKVVGQNEIIVSHLTECTLWMTNFPPSYTQRNIRDLLQDINVVALSIRLPSLRFNTSRRFAYIDVTSKEDARYCVEKLNGLKIEGYTLVTKVSNPLEKSKRTDSATLEGREIMIRNLSTELLDENLLRESFEGFGSIEKINIPAGQKEHSFNNCCAFMVFENKDSAERALQMNRSLLGNREISVSLADKKP” the “soluble on expression in E. coli” value was “soluble”. With “STGKKPKHHVLSHDIIPASKPIAEKLQIQPESPVVELKRILYNDDQPLTFEVTHYPLDLFPGIDTFIADGVSMHDILKQQYKVVPTHNTKLLNVVYAQQEESKYLDCDIGDALFEIDKTAFTSNDQPIYCSLFLMHTNRVT” the “soluble on expression in E. coli” value was “not soluble”. For “MVRKGCNSLVRAEKILTHIAWVGMASYMELLNKFQYPKSSLLNLLNVMVDCGFLIKNKNGYYSLGIKNYELGCQALHRQNIFEVTKRPMQELSLKSGLVCHLGAMESISAIYLDKIESPDSVPTSKSWIGKKLELHITALGKALLAWKTREELDYFLEALTLTPHTRNTFTDKKLFLEELQKTRLRGWAIDNEESTYGAVCLSMPVFNMYNRVNYAISLSGDPVVYSGNKIDSYLELLRKCAEQISYGLGYRNENEHLRKGN”, the “soluble on expression in E. coli” value was “soluble”. In the case of “MKKLLSACLILFTVVCSAYAADEKEAAPAAEYAYYGFEPEIVTNYISNRKKLGFVKISVELMVKSPDDLVIVERHDPLLRAAIIEVLGNQAEEKVKSLTGREEIRRECFDMVNNLLTKEAGKPLVVNLLFTSYLYD”, the “soluble on expression in E. coli” value is reported as “not soluble”. In the case of “MLHCLDEFGNLKLKAIIDWQGVSTLPPGLDLSRLLMGCLSAHERRERGLEMLKLYHETFNQVLGKELFSFQELQDSYNLYYPMMAMALLPLVSSLAENSQVSEVEKAQIRFKTETKLVAMMEDLIEVHEYNLKHFPEILKG”, the “soluble on expression in E. coli” value is reported as “not soluble”. With “MRGSHHHHHHTDPALRAYDNLKSLGITNPEEIDRYSLRQEANNDILKIYFQKDKGEFFAKSVKFKYPRQRKTVVADGVGQGYKEVQEISPNLRYIIDELDQICQRDRSEVDLKRKILDDLRHLESVVTNKISEIEADLEKLTRKGLCGR” the “soluble on expression in E. coli” value was “soluble”. With “MTTLNKENIQKEFKERLSEDELLNCMRCGFCLPTCPTYIQSGYKESHSPRGRIALMKAVVDGLIEPDEDVENTLNVCLGCRACEPVCPSGVNYGHLLEEARDIINQNKKFSMPVRAVRKVVFEELFPHQNRMRTLTGLIGFYQRSGLQTITHKTGIMKLFPETLATMDLVLPKVPKMKAMKDRPTFLPAESTKKKQVAFFTGCLMDTMFLETNNATMKLLQLAGCDIVIPKTQSCCGALHGHAGEKSGAKELAKRNIKAFEDLNIDYIITNAGGCGAYLVDYDYLLKDDPQWAGRAKQFVSKIKDITAILVELDFHKRNDLRLTPQIITYQDSCHLRNVMRTSSEPRMLLEAIQGATYREMKDADRCCGSAGIYNIVHSELSMEFLDYKMDRVHETDATTIVTANPGCLLQMKLGIEREGLSHKMRGIHIVDLLLEAIETNS” the “soluble on expression in E. coli” value was “not soluble”. For “MFGNYISTSPEKIIMLALRIMQGIAKTLAEHVLDLKHSPLSKQAMKRQTLRLWAEYSLGTINKIIDMKSGPSNQSAEEMEFIRRLILIRRDIHSQLHSVGIDINDGTGD”, the “soluble on expression in E. coli” value was “not soluble”. For “MLDKQTMVTAHNALPGRTTAMSIDDTHFVNGSSLTAAPQSGQQQILIGMGCFWGAERLFWQLDGVISTSVGYSGGFTPNPTYEEVCSGKTGHTEVVRVIFDPERLPLTELLRAFWERHDPTQGMRQGNDRGTQYRSAIYTFSEDQREIAEASKAAYQALLTAQHRPSITTEILPAGAYYFAETYHQQYLAKNPNGYCGLGGTGVCFPPHSTL”, the “soluble on expression in E. coli” value was “not soluble”. For “AIARSEWPFDYASEADAMLHRITPENFEKLVRFAARLLRVGEIIALPTDTVYGLAAAARNSHGIELLYQTKQRDLRKPLAIAVPSVEDVSVYLHTEHLPPGLLEAILPGPLTLLLRQREDYVGIDLQDVRIDQYRGWERAKRLAPNLNLRRDGLLGVRVPDASFACAVSRELGDPLALTSANVSGRGDCGSVDEFRALWSACAAVFDGGAMPKPVMPSTVVDLSVPGTFRITRAGWMATDLVRILENKFGLTNKSANTSN”, the “soluble on expression in E. coli” value was “soluble”. In the case of “KNKTIEVYVDRATLPTIQQMTQIINENSNNKKLISWSRYPINDETLLESINGSFFKNRPELIKSLDSMILTNEIKKVIINGNTLWAVDVVNIIKSIEALGKKTEIELNFYDDGSAEYVRLYDFSRLPESEQEYKISLSKDNIQSSINGTQPFDNSIENIYGFSQLYPTTYHMLRADIFETNLPLTSLKRVISNNIKQMKWDYFTTFNSQQKNKFYNFTGFNPEKIKEQYKASPHENFIFIGTNSGTATAEQQIDILTEAKKPDSPIITNSIQGLDLFFKGHPSATYNQQIIDAHNMIEIYNKIPFEALIMTDALPDAVGGMGSSVFFSLPNTVENKFIFYKSDTDIENNALIQVMIELNIVNRNDVKLISDLQ”, the “soluble on expression in E. coli” value is reported as “soluble”. With “MPSNTSIRSNSNAIKARAPASAPKRPTSAEYVKKYTEYLATGHQIRHALQRLYDLNCSIQVFEECLTEKVILQKYTGQSEYQYPVTLLMNKFDDLRKREIRVANEKWSKNGELSAAMFTNKMVMEQRMKDLEKMDQKTANNLFVAALGDSCFIPKKKVDYSKFKITKRSKSSTSTSPSSSSSETSSPIA” the “soluble on expression in E. coli” value was “not soluble”. For “MEYKSTRHAKYLCNYHFVWIPKYRRKVLTGEVAEYTKEVLRTIAEELGCEVLALEVMPDHIHLFVNCPPRYAPSYLANYFKGKSARLILKKFQELKKSTNGKLWTRSYFVSTSGNVSSETIKKYIEEQWAKENEED”, the “soluble on expression in E. coli” value was “soluble”. In the case of “MSITEDIDDLKTAIENNEPIRKGIEETMHRASQIRIKQRYNCAEQEVTQMRAPFLGFSVFVRFQSRARAHTIKIINEDEVEQMLASSPVPYS”, the “soluble on expression in E. coli” value is reported as “not soluble”. For “MDDSREESQFIVDDVSKTIKEAIETTIGGNAYQHDKVNNWTGQVVENCLTVLTKEQKPYKYIVTAMIMQKNGAGLHTASSCYWNNDTDGSCTVRWENKTMYCIVSVFGLAV”, the “soluble on expression in E. coli” value was “soluble”. With “MTKPLVIFGSGDIAQLAHYYFTRDSEYEVVAFTVDRDYASVSEFCGLPLVAFDEVAQRFPPESHAMFVALAYAKLNGVRKEKYLAAKALGYELASYVSSHATVLNDGRIGENVFLLEDNTIQPFVSIGNNVTLWSGNHIGHHSTIHDHCFLASHIVVSGGVVIEEQSFIGVNATLRDHITIGSRCVVGAGALEHHHHHH” the “soluble on expression in E. coli” value was “not soluble”. With “MRKIVLPGDLLSTNPRAAGYGTYVEGGKVYAKIIGLFDQTETHVRVIPLKGRYTPSVGDVVIGIIREVAANGWAVDIYSPYQAFLPVSENPEMKPNKKPNEVLDIGDAIIAKVLNIDPKMKVTLTMKDRICRPIRFGRIVAINPARVPRVIGKKGSMIKLLKSELDVQIVVGQNGLIWVNGDRRKVSIAEEAIYLIEQEAHTEGLTDRVAEFIKRRKADVGIQHHHHHH” the “soluble on expression in E. coli” value was “soluble”. In the case of “SMPSQQRVKRWGFSFDEILKDQVGRDQFLRFLESEFSSENLRFWLAVQDLKKQPLQDVAKRVEEIWQEFLAPGAPSAINLDSHSYEITSQNVKDGGRYTFEDAQEHIYKLMKSDSYARFLRSNAYQDLLLAKKKGKSLAGKRLTGLMQ”, the “soluble on expression in E. coli” value is reported as “soluble”. For “MAHHHHHHMMEERYNPFTGYQTPRHQQQSYRHNGGAMSRGGWGERVDAPADKMKPVDWTRVKLVPGSWKVLDTKAIHRAAHAKAEVVPAKQLTEEESNEWRETHTISIFGEGCPPPLSNFDQLSAFVPAYLQKKLTAQGFTSPTAVQAQAWPILLRGRDMVGVAKTGSGKTLAFMVPALAHIAMQEPLRTGDGPMVVVLAPTRELAQQIEQETKKVLPHDLRCGCVYGGAPKGPQLGILRNGVHILVATPGRLIDFLEIKRVNFFRVTYLVLDEADRMLDMGFEPQVRAICGQIRPDRQTLMFSATWPKEIQRLAAEFQKDWIRINVGSTELLANKDVTQHFILTQEHAKMEELKKLLANHRNQRVLIFCKTKRTADDLEWQLKRWGYDAMAIHGDKEQRQREFILERFRKDPRLCLVATDVAARGLDIKELETVINYDFPMQIDDYVHRIGRTGRAGAKGEAFTLITKREQQITPAVVTELIAIVDRAQQQVPDWLREWGEQRPRYQVMKRNRNMMGFGSSRHMPALYNGNRASFDAAGGGHPGNNNGTAGNKRGGEGGVFGLARHGSNGAAPFSSSRIEYKRFDDSDDDDGAAPPAKKRSK”, the “soluble on expression in E. coli” value was “soluble”. For “MNINKSKKRDSAVDIDNHDPFSVLLMGVDERDGDKGRADSLIYMTVNPKTKTTEMVSIPRDTYTEIIGKGKMDKINHSYAFGGVQMTVDTVENFLDVPVDYFIKVNMESFKDVVDTLGGITVNSTFAFNYDGYSFGKGEITLNGKEALAYTRMRKEDPNGDFGRQNRQRQVIEGIINKGANISSITKFGDMFKVIENNVKTNLTFDDMWDIQSGYKEARSKVIQHELKGDGTKINGIYYYKADESSLSDITAELKESLNKLEHHHHHH”, the “soluble on expression in E. coli” value was “soluble”. In the case of “MPSSIYRYETIQVAGRGAFGLVVIARDTLTSKRVAIKRIMVPNVSKVSLAREISCLRNLHHRNILKLLDCFPSADLMSIVTEEVPYTLGDIIKDKTRPKTEQFNRWYYTQILSGIAYLHSKEIMHRDIKPENILVTSRNVVKIADFGQACFYMPKDPNQEYDVNVATRWYRAPELLFGSKKYKPDVDIWAIGCILAELVRGKPIFPGRSELEQISIIFGVLGTPNEDNWPNWRTMPDANKLLFEPKEPRNNWTEILLCKEISNNFTEFLGSHLQFFKRLKASELLKEPWIKQGLPLVEPNYRISKKSTRRNQRDALPPLHVFL”, the “soluble on expression in E. coli” value is reported as “not soluble”. For “MAHHHHHHMKAKGPVKIVLFGAPGVGKGTFAEILSKKEKLKHINMGSILRDEIKNKTTIGREIHKVVTSGNLVADELVVKIVKGEIAKVTAQDGHFKGFILDGFPRNLLQCKQLVEITSIDLFVNIHMPRHILLKKIMGRRICHECNRNFNIAHIRDDPYDMPPILPPPECEKCKGNPKLQRRSDDEEEIVAHRLDTYESTNSHLINFFKNSNCNLVDFEIQRGLRDFDSFYRVVGQHL”, the “soluble on expression in E. coli” value was “not soluble”. In the case of “MGSDKIHHHHHHMKKHSPIGCISKAGLFSKLPHKMLEKIAPISTHQEYFEKGSFIRQPGDGKNGMMFVDKGSAKIYNLNRDGKETVLGVLNKGDYDGQQNLFQDDSHENFIQALQDTYICSISRADFQRLLKDTPDLTLNLLNNFGEKLVAIETNSVRRNSMNAKDRLMDYLVEQSQKNGATKFTLPLKKKDLASYLGTSPETLSRQLKSLEKEGKIKVNRREITIVKD”, the “soluble on expression in E. coli” value is reported as “not soluble”. With “MGSDKIHHHHHHVSEKMWGCCPNHWKSFGSSCYLISTKENFWSTSEQNCVQMGAHLVVINTEAEQNFITQQLNESLSYFLGLSDPQGNGKWQWIDDTPFSQNVRFWHPHEPNLPEERCVSIVYWNPSKWGWNDVFCDSKHNSICEMKKIYL” the “soluble on expression in E. coli” value was “not soluble”. With “MAHHHHHHMALSSSGSAALGDRIARAAAAAPQWTAQQRCFRQLLKSLRGAYFHDRSKLFWARHRILVEFYKYSRVEEERDVLLLVGIGNEIATFVAEYMKVDVGAIMEHNKKIQSLPVAKAKRYREEYLLHEKQHESWCKQKIRLMMDRRPPPPYPFS” the “soluble on expression in E. coli” value was “not soluble”. For “MMQPLQLSAGGFAVVLGTNEIASAVAVHLHREGCCVVMSHDPFPPVIRRKMAFHDALYGDEVTVEGVRGERVDHATQIFKALRRSDNVLVSWLALPDLLPIGAVDVLIDARMQKHRVTPDLRGLARISVGLGPGFSTAVNCDVAIETRPGRSGLIVGAGWTDAADGVASPLGGVGAERFEYSQASGRWRTAVEIGSRVFSGFTIGHLGGVPVRAPCDGILRGVVRDGQDVPQGVKLLEVDSRGRHAQWTGIDDRGRGIAKAVLRAVQPQAEIRTSYAAQPIAVFLEHHHHHH”, the “soluble on expression in E. coli” value was “not soluble”.

From the DeepSol protein solubility set
